Source: publication PMC6486636 (2019)

T1: His-SUMO-MLLE (PABPC1 MLLE domain 544-626 fused with a His-tagged SUMO tag) (Homo sapiens (Human), UniProt P11940)
T1 chain: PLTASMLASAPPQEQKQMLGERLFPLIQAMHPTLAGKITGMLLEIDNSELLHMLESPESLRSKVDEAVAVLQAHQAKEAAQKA


Key:
[1] = target: T1, His-SUMO-MLLE (PABPC1 MLLE domain …); assay: Ni-NTA pull-down, SDS-PAGE
[2] = target: LARP4A (1-287), N-terminal domain (Homo sapiens (Human), UniProt Q71RC2); assay: competition EMSA (MLLE displacing 32P-oligoA15 from NTD); mutually exclusive with oligoA15 RNA; measured by competition with preformed NTD-oligoA15 complex
Chain of LARP4A (1-287), N-terminal domain (Homo sapiens (Human), UniProt Q71RC2) (Q71RC2 1-287): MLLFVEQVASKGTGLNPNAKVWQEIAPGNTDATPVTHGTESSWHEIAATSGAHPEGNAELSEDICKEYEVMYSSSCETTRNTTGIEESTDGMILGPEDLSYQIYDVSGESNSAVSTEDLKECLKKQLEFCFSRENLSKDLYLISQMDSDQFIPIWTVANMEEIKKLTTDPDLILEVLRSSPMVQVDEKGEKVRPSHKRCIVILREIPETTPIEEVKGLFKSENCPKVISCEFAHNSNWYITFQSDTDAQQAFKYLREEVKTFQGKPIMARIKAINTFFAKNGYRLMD

| binding result [1] | binding result [2] | Binder |
| --- | --- | --- |
| binds | – | LARP4A (1-287), N-terminal domain (protein) not shown |
| – | binds | PABPC1 MLLE (544-626) (protein) PLTASMLASAPPQEQKQMLGERLFPLIQAMHPTLAGKITGMLLEIDNSELLHMLESPESLRSKVDEAVAVLQAHQAKEAAQKA |
